Data on one protein can be found in doi:10.1101/2021.04.26.440876, “Fluoxetine targets an allosteric site in the enterovirus 2C AAA+ ATPase and stabilizes the hexameric complex” (bioRxiv, 2021).

The data set concerns the molecule itself. In words: SEC; size exclusion chromatography gel filtration profile of the MBP-tagged full-length preparation (Figure S9). A general note: Size exclusion chromatography separates by hydrodynamic size, large species first.

B1: MBP-tagged full-length CV-B3 2C (natural protein)
chain: NNSWLKKFTEMTNACKGMEWIAVKIQKFIEWLKVKILPEVREKHEFLNRLKQLPLLESQIATIEQSAPSQSDQEQLFSNVQYFAHYCRKYAPLYAAEAKRVFSLEKKMSNYIQFKSKCRIEPVCLLLHGSPGAGKSVATNLIGRSLAEKLNSSVYSLPPDPDHFDGYKQQAVVIMDDLCQNPDGKDVSLFCQMVSSVDFVPPMAALEEKGILFTSPFVLASTNAGSINAPTVSDSRALARRFHFDMNIEVISMYSQNGKINMPMSVKTCDDECCPVNFKKCCPLVCGKAIQFIDRRTQVRYSLDMLVTEMFREYNHRHSVGTTLEALFQ
notes: coxsackievirus B3 non-structural protein 2C (cut product of the polyprotein), full length (329 residues by the printed limits of the other constructs); source: purified
As to B1, the binding result is given as “binds”.
